Data: paper PMC12578283 (Protein & Cell, 2025)

B1: 4C7 (antibody, V domains shown)
VH: QVQLHQPGSVLVRPGTSVKLSCKASGYTFTSSWMNWAKQRPGQGLEWIGEIHPRSGNTNYNENFKGKATLTVDTSSSTAYVDLSSLASEDSAVYYCARSGGTYYYAMDSWGQGTSVTVSS
VL: DIQMTQTTSSLSASLGDRVTISCRASQDISNYLNWYQQKPDGTVKLLIYYTSRLHSGVPSRFSGSGSGTDFSLTISTLEQEDFATYFCQQANTSPYTFGGGTKLEIN
B2: 1G9 (antibody, V domains shown)
VH: QVQLQQPGPELVRPGASVKLSCKASGYTFTTYWMKWVRQRPGQGLEWIGTIDPSDNEIHYNQIFKDKATLTVDKSSSTAYMHLSSLTSEDAAVYYCARWDGTSYYAMDYWGQGTSVTVSS
VL: DVVMSQTPLSLPVSLGDQASISCRSSQSLVHSNGNTYLHWYLQKPGQSPKLLIYKVSNRFSGVPDRFSGSGSGTDFTLKISRVEAEDLGVYFCSQSTHVPPTFGGGTKLEIK

Target: p15 protein of African swine fever virus (African swine fever virus, UniProt Q65179)

Binder	binding result
B1	binds
B2	binds
